Test results published in patent US5223421A, “Identification of methionine Nα-acetyltransferase” (The General Hospital Corporation, priority 1990, dated 1993).

Molecular target: T1, yeast methionine acetyltransferase (M-N^α AT) (Saccharomyces cerevisiae, UniProt Q06504)
T1 construct: a crude yeast homogenate from the aaa1 mutant strain; endogenous in cells; host or cells: Saccharomyces cerevisiae strain T3A-a (aaa1), crude lysate
T1 sequence (Q06504 1-195): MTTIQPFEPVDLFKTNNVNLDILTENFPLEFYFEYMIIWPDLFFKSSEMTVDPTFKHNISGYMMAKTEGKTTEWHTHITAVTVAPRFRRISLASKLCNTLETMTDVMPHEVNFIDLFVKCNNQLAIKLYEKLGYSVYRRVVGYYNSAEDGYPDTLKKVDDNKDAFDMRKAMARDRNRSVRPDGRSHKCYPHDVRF
T1 sequence (Q12387 2-796 partner limits assumed): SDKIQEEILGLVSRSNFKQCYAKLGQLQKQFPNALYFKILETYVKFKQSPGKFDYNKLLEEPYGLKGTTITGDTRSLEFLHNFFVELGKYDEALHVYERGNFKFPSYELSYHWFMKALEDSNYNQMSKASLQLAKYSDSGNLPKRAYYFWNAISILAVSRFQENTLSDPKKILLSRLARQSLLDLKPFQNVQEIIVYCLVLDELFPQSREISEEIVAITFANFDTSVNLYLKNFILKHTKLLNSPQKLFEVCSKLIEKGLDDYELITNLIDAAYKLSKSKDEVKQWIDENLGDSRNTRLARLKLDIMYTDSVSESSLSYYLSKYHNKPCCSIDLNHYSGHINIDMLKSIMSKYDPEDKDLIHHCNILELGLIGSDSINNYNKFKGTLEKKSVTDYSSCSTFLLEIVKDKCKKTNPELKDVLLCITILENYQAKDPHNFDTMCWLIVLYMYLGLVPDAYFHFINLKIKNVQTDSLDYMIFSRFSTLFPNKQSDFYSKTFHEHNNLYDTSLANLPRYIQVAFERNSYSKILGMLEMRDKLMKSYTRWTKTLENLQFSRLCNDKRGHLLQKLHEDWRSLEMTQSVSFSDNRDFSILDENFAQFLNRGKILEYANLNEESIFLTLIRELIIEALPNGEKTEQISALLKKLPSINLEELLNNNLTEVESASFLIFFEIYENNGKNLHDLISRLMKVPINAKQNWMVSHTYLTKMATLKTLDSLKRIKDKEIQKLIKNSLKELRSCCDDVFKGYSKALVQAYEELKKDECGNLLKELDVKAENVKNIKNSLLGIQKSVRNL
Experiment: Relative activity of yeast methionine acetyltransferase for N^α -acetylation of synthetic peptides (PAI analogues)
Format: biochemical
Parameters: tested at 50 µM
Details: Table 5; mean ± SD (N=3-5); normalized to yeast proteinase A inhibitor 3
Protocol: N^α -acetyltransferase activity was determined as previously described [Lee et al., J. Biol. Chem. 263:14948-14955 (1988)]. Aliquots of the lysate or chromatographic fractions were added to 1.5 ml Eppendorf tubes containing a reaction mixture of 50 mM HEPES, pH 7.4, 150 mM KCl, 1 mM DTT, 25 μM [^3 H] acetyl coenzyme A (0.5 μCi) and 50 μM synthetic peptide with an adjusted final volume of 100 μl. The assay mixture was incubated at 30° C. for 30 min. The reaction was stopped by adding 17 μl of 0.5M acetic acid and chilled in an ice bath. The reaction samples were filtered through SP membrane discs (Cuno) (previously pre-swollen in 0.5M acetic acid), and then washed three times with 1 ml of 0.5M acetic acid on a Millipore 1225 sampling manifold. The partially dried membranes were placed in scintillation cocktail and counted with a Beckman LS 3801 scintillation counter. One unit of activity was defined as the amount of enzyme able to transfer 1 pmol of [^3 H] acetyl group from [^3 H] acetyl coenzyme A to synthetic peptide per min under standard enzyme assay conditions defined above.
Proteinase A inhibitor 3 (PAI) (Tsunasawa et al., Methods Enzymol. 106:165-170 (1984); Wold, F., Trends Biochem Sci. 9:256-267 (1984); Driessen et al., CRC Crit. Rev. Biochem 18:281-325 (1985); Mullen et al., EMBO J. 8:2067-2075 (1989); Lee et al., J. Bacteriol. 171:5795-5802 (1989); Hershko et al., Proc. Natl. Acad. Sci. USA 81:7021-7025 (1984); Bachmair et al., Science 234:179-186 (1986); Arfin et al., Biochemistry 27:7979-7984 (1988); Persson et al., Eur. J. Biochem. 152:523-527 (1985); Huang al., Biochemistry 26:8242-8246 (1987); Lee et al., J. Biol. Chem. 263:14948-14955 (1988); Kamitani et al., J. Biol. Chem. 264:13188-13193 (1989)) is the only known yeast protein which is acetylated at its NH2 -terminal methionine residue (Biedermann et al., Carlsberg Res. Commun. 45:225-235 (1980)). […] The numbers in parentheses refer to the residue numbers, and the letters in parentheses refer to the amino acid sequence Abbreviations are as in FIG. 1. Data are reported as mean activity ±SD (N=3-5) and are normalized to the activity of the homogenate towards yeast proteinase A inhibitor 3. The sequence of this protein is:
Thus, by using PAI, its analogues and other peptides, the structural features of M-N^α AT substrates were studied. […] Only three of nineteen analogues were acetylated, although the efficiency of their acetylation varied from 9-55% (Asp>Glu>Gln). Although it was shown previously that iso-cytochrome c variant proteins (Met-Ile-Arg - - -, Met-Ile-Lys - - -, Met-Met-Asn - - -) can be N^α -acetylated in vivo (Tsunasawa et al., J. Biol. Chem. 260:5382-5391 (1985)), synthetic peptides mimicking the NH2 -terminal 24 amino acid residues of these iso-cytochrome c variants were not acetylated by the yeast M-N^αAT.

MNTDQQKVSEIFQSSKEKLQGDAK (MNTDQQKVSEIFQSSKEKLQGDAK) [Proteinase A Inhibitor 3 (1-24) (Yeast)]
Activity (%): 100 ± 5%
